Among the data in the RNAGym collection of RNA variant scans (doi:10.7554/elife.80360) are self-cleavage values, retold here.

B1: HDV Ribozyme (parent)
chain: GGCCGGCAUGGUCCCAGCCUCCUCGCUGGCGCCGGCUGGGCAACAUUCCGAGGGGACCGUCCCCUCGGUAAUGGCGAAUGGGACCCA

The variants in this series derive from B1. Description: self-cleavage, relative activity (ratio to wild type); higher = more cleavage; co-transcriptional.
On to C4G C41A, for which the self-cleavage stood at 0.162.

On to U27G A83G, for which the self-cleavage worked out at 0.755.

For the variant C14A A77G, the self-cleavage was 0.755.

With U27C C58A, the self-cleavage is 0.458.

For the variant A45G C61G, the self-cleavage was 0.467.

On to U47G G68A, for which the self-cleavage worked out at 0.831.

Regarding A43G G68A, the self-cleavage amounted to 0.665.

As for C19G U65A, the self-cleavage was determined as 0.0354.

For G29A C58G, the self-cleavage worked out at 0.271.

For C36A A70C, the self-cleavage was determined as 0.128.

As to A8G U69G, the self-cleavage worked out at 1.19.

In the case of C61U U72C, the self-cleavage turned out to be 0.356.

Turning to C49U G52A, the self-cleavage came out at 0.96.

Regarding C22G G52C, the self-cleavage came out at 0.0652.

Take A51C G52U: the self-cleavage was 0.601.

As to G55C A71U, the self-cleavage stood at 0.872.

Turning to A8G A71G, the self-cleavage amounted to 0.739.

In the case of C58A U79A, the self-cleavage was found to be 0.789.

As for G25A U46C, the self-cleavage is 0.0831.

Regarding C24G C64U, the self-cleavage amounted to 0.0886.

For C22A A83U, the self-cleavage came to 0.0678.

In the case of C3U U79G, the self-cleavage was 0.489.

On to C36G G55U, for which the self-cleavage came to 0.032.

For the variant C7U C44A, the self-cleavage stood at 0.403.

For the variant A45U A51G, the self-cleavage stood at 0.965.

For C3A C19A, the self-cleavage was found to be 0.0199.

Regarding G29C G73U, the self-cleavage worked out at 0.0583.

As to G1U G55A, the self-cleavage was 0.208.

As for G10A C48A, the self-cleavage was 0.739.

In the case of G82C C85G, the self-cleavage stood at 0.119.

With C41U G67U, the self-cleavage stood at 0.604.

Take G53U G59C: the self-cleavage stood at 1.23.

Consider A8C G29U, for which the self-cleavage stood at 0.151.

Consider C24U A71U, for which the self-cleavage amounted to 0.587.

With G6A U20C, the self-cleavage turned out to be 0.158.

On to C13G U47C, for which the self-cleavage turned out to be 0.

Turning to C15U C21A, the self-cleavage came to 0.

In the case of G25U A51C, the self-cleavage is 0.135.

Turning to G1U C14U, the self-cleavage came to 0.434.

For C7G A51C, the self-cleavage stood at 0.437.

Regarding G73U C85A, the self-cleavage was 0.397.

Consider C4U C86G, for which the self-cleavage came out at 0.831.

With G5C G17C, the self-cleavage was determined as 0.151.

C14G U46G: the self-cleavage was determined as 0.237.

In the case of C14G U46A, the self-cleavage was 0.237.

As to G11U A71U, the self-cleavage stood at 0.158.

Turning to A42U A45C, the self-cleavage stood at 0.361.

For G31U U65G, the self-cleavage came out at 0.383.

As for C44U A77U, the self-cleavage came to 0.111.

In the case of U47C G82C, the self-cleavage worked out at 0.185.

In the case of G54U C63G, the self-cleavage was found to be 0.749.

Take C63A A71G: the self-cleavage was found to be 0.504.

Consider C30A G40U, for which the self-cleavage was 0.183.

As for C66A U79G, the self-cleavage is 0.804.

Turning to C44U G68A, the self-cleavage was determined as 0.681.

Take A8U C58U: the self-cleavage is 1.15.

In the case of C19G U37C, the self-cleavage is 0.0594.

With G55C C63U, the self-cleavage came out at 0.808.

On to U60G C63G, for which the self-cleavage was 0.293.

As to U79A C85U, the self-cleavage stood at 0.855.

For the variant G50C G67C, the self-cleavage turned out to be 0.399.

Turning to C7U C41A, the self-cleavage turned out to be 0.571.

As for U79C G82A, the self-cleavage worked out at 0.133.

Take G17U A70C: the self-cleavage was found to be 0.246.

With U60G U65G, the self-cleavage was determined as 0.883.

On to U23A C63G, for which the self-cleavage amounted to 0.877.

Take C21A A42C: the self-cleavage came out at 0.0437.

Regarding G17A G67U, the self-cleavage stood at 0.776.

As for U9G G35U, the self-cleavage is 0.653.

Take C36A C49U: the self-cleavage turned out to be 0.116.

On to C14A U37G, for which the self-cleavage was 0.104.

For A42U G54C, the self-cleavage is 0.381.

Turning to G31U G81C, the self-cleavage amounted to 0.208.

In the case of U12G C15U, the self-cleavage worked out at 0.453.

As for G54C C85G, the self-cleavage came to 0.724.

As for G6A G25U, the self-cleavage is 0.089.

With G5U G25A, the self-cleavage came to 0.0346.

Take C64A A70C: the self-cleavage came to 0.623.

For C44U G74U, the self-cleavage is 0.67.

As to A42G A70U, the self-cleavage is 0.365.

For G17A C33G, the self-cleavage turned out to be 0.0369.

On to G2A C49A, for which the self-cleavage was 0.122.

On to G5A C84U, for which the self-cleavage is 0.117.

With A51G G73C, the self-cleavage turned out to be 0.575.

With U27A A43G, the self-cleavage was found to be 0.237.

As to C18A G39A, the self-cleavage came to 0.0739.

Take G74A A78C: the self-cleavage is 0.0811.

Consider C26A G73U, for which the self-cleavage is 0.415.

Take C13U C26A: the self-cleavage came to 1.23.

For C66A A83C, the self-cleavage worked out at 0.527.

Turning to C26U U72A, the self-cleavage stood at 0.731.

For G29U A78C, the self-cleavage was found to be 0.

With G34C A56U, the self-cleavage amounted to 0.277.

On to G35U U37G, for which the self-cleavage is 0.095.

Turning to C13U C44A, the self-cleavage is 0.18.

Regarding C18A C22G, the self-cleavage is 0.0811.

For A43C A70G, the self-cleavage came to 0.643.

Consider G38U A83C, for which the self-cleavage was 0.0773.

As for C7G G54C, the self-cleavage turned out to be 0.415.

On to U12G C84U, for which the self-cleavage came out at 0.692.

On to C3G C57U, for which the self-cleavage turned out to be 0.75.

Take C21A C32A: the self-cleavage was found to be 0.17.

On to G67U G68A, for which the self-cleavage turned out to be 0.972.

In the case of G11U A70G, the self-cleavage amounted to 0.201.

Regarding C36U G55C, the self-cleavage amounted to 0.789.

Take U27C U47G: the self-cleavage is 0.782.

On to C33G G35C, for which the self-cleavage turned out to be 0.0396.

Consider C32G U65G, for which the self-cleavage stood at 0.119.

C62U U69A: the self-cleavage is 1.24.

On to G5A U47C, for which the self-cleavage stood at 0.0615.

For C64U C75U, the self-cleavage came out at 0.252.

As to A16C G81A, the self-cleavage is 0.489.

Turning to U27G A42G, the self-cleavage worked out at 0.289.

In the case of C49U A78G, the self-cleavage is 0.692.

Turning to C41G G76C, the self-cleavage stood at 0.91.

Turning to G82C C84A, the self-cleavage was 0.383.

As to U9A U79C, the self-cleavage was found to be 0.237.

As to G1A A87G, the self-cleavage stood at 0.141.

C24G A87G: the self-cleavage was 0.137.

Turning to G31C C85A, the self-cleavage was 0.317.

For the variant U65A A83G, the self-cleavage turned out to be 0.859.

Regarding C33G G53U, the self-cleavage was 0.185.

For U27A C66A, the self-cleavage amounted to 0.886.

As for U9G C62G, the self-cleavage was 0.462.

Consider C15U C30A, for which the self-cleavage was determined as 0.567.

Consider C7A G35U, for which the self-cleavage was found to be 0.0906.

Take U79C A87U: the self-cleavage was determined as 0.373.

For C15G C48A, the self-cleavage was 0.623.

With G59U G73U, the self-cleavage is 0.516.

On to C13U A51G, for which the self-cleavage is 0.89.

Turning to C41A G55U, the self-cleavage was 0.968.

For G29U A51U, the self-cleavage amounted to 0.169.

As to G34U U79A, the self-cleavage stood at 0.138.

In the case of A45G G53C, the self-cleavage came to 1.05.

For the variant C7U C30A, the self-cleavage amounted to 0.369.

In the case of G34A U46A, the self-cleavage was found to be 0.121.

Regarding A8C U20C, the self-cleavage came to 0.

For C33U C84A, the self-cleavage is 0.65.

As for C3A C21U, the self-cleavage is 0.0314.

For the variant U9G U65C, the self-cleavage turned out to be 1.17.

Turning to C26U A71U, the self-cleavage was determined as 0.941.

With C24U G76C, the self-cleavage came to 0.997.

C57U U60C: the self-cleavage was 0.906.

On to U9A G38A, for which the self-cleavage stood at 0.233.

For G11A G53U, the self-cleavage is 0.588.

With G1C U79C, the self-cleavage came out at 0.177.

Turning to A71G U79A, the self-cleavage came to 0.997.

As for G10A C49A, the self-cleavage was determined as 0.665.

On to C57U G74C, for which the self-cleavage is 0.208.

As for U27G G80C, the self-cleavage is 0.213.

Consider C24G U27G, for which the self-cleavage is 0.0536.

Take U12A U23C: the self-cleavage was 0.237.

As for G1U C63U, the self-cleavage worked out at 0.535.

With C13A U69C, the self-cleavage was 0.111.

For the variant C21G C22U, the self-cleavage is 0.0519.

With G50A G52C, the self-cleavage was found to be 0.672.

On to C19G U72C, for which the self-cleavage amounted to 0.101.

With C33U C58U, the self-cleavage came to 0.917.

On to G10U A71C, for which the self-cleavage amounted to 0.604.

Consider G76U U79G, for which the self-cleavage came out at 0.91.

In the case of A56C A87C, the self-cleavage worked out at 1.04.

As for C14U C86U, the self-cleavage amounted to 0.875.

C57U A83G: the self-cleavage was 0.808.

In the case of U20G C57G, the self-cleavage was 0.208.

In the case of C14G G82U, the self-cleavage amounted to 0.196.

Regarding G35U G68A, the self-cleavage stood at 0.351.

C41G G74C: the self-cleavage was found to be 0.119.
